Results on two molecules are retold here after publication PMC3660353.

For assay [1], the target named is recombinant, full-length human CD81 with six putative palmitoylation sites mutated to alanine (human) (UniProt P60033). In words: dynamic light scattering; single purified proteins in detergent micelles (claudin-1 in foscholine-10, CD81 in βOG), with and without CHEMS, 20°C; oligomeric state predicted from the hydrodynamic radius.
The target in assay [2] is recombinant, full-length human claudin-1 (human) (UniProt O95832). In words: dynamic light scattering; purified proteins in detergent micelles (claudin-1 in foscholine-10, CD81 and CD82 in βOG) mixed at a 1:2 molar ratio, with and without CHEMS, 20 mM MOPS pH 8, 1% βOG, 20°C, followed for 23-36 h.
The target of assay [3] is T1, recombinant, full-length human claudin-1 (human), O95832.
T1 chain: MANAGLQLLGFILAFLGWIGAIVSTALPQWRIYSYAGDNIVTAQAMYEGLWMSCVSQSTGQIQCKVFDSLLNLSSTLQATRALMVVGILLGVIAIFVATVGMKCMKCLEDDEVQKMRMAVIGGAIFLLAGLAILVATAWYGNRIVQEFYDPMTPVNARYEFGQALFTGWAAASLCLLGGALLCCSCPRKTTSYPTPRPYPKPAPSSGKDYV
In words: reducing SDS-PAGE (Coomassie); proteins solubilised in βOG and eluted from a nickel affinity column. The following applies: remark: other sources report otherwise.

In assay [4] the target is T1, recombinant, full-length human …. In words: AUC; claudin-1 in βOG micelles; sedimentation velocity, continuous c(s) distribution model (SEDFIT). The following applies: remark: other sources report otherwise.
The target is the same in assay [5]. In words: dynamic light scattering; single purified proteins in detergent micelles (claudin-1 in foscholine-10, CD81 in βOG), with and without CHEMS, 20°C; oligomeric state predicted from the hydrodynamic radius. The following applies: remark: other sources report otherwise.
For assay [6] the target is unchanged. In words: non-reducing SDS-PAGE with immunoblot; P. pastoris total membranes, 1 µg protein per well, sample buffer without β-mercaptoethanol, 12% gel, blot with anti-His6. The following applies: remark: other sources report otherwise. A general note: Immunoblotting shows a protein as a band on a membrane.

Where “and” joins values, the source holds several entries; their conditions need not be identical. Equal values may be shown once.

What is called stoichiometry N is a count of units in the complex or per binding partner. As to “recombinant, full-length human CD81 with six putative palmitoylation sites mutated to alanine (from UniProt P60033 1-236) (natural protein)”, the stoichiometry N in assay [1] and in assay [2] was 2 in each case.

B1: recombinant, full-length human claudin-1, O95832 1-211 (natural protein)
chain: MANAGLQLLGFILAFLGWIGAIVSTALPQWRIYSYAGDNIVTAQAMYEGLWMSCVSQSTGQIQCKVFDSLLNLSSTLQATRALMVVGILLGVIAIFVATVGMKCMKCLEDDEVQKMRMAVIGGAIFLLAGLAILVATAWYGNRIVQEFYDPMTPVNARYEFGQALFTGWAAASLCLLGGALLCCSCPRKTTSYPTPRPYPKPAPSSGKDYV
Regarding B1, the stoichiometry N was 2 in assay [3]; 2 in assay [4]; 2 in assay [5]; 2 and 3 in assay [6].
